In US20080241109A1:

Target: Fas receptor (human) (UniProt P25445)
Assay: cell-based or functional assay

Chain of UniProt P25445 (P25445 26-335): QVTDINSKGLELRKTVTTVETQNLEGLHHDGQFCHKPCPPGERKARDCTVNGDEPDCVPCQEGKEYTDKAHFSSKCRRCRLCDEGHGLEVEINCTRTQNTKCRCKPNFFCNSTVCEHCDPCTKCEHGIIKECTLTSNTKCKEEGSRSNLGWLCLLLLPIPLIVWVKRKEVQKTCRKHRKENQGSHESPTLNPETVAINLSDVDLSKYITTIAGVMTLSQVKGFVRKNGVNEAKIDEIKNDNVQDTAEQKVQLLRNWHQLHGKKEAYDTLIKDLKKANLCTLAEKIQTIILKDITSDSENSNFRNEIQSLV

| Substance | IC50 (ng/ml), PESMTS survival assay, ARH-77 cells (multiple myeloma) | IC50 (ng/ml), PESMTS survival assay, DOHH2 cells (follicular lymphoma) | IC50 (ng/ml), PESMTS survival assay, HL60 (AML-M3) cells | IC50 (ng/ml), PESMTS survival assay, Jurkat cells (acute T lymphoblastic leukemia) | IC50 (ng/ml), PESMTS survival assay, K562 cells (chronic myeloid leukaemia) | IC50 (ng/ml), PESMTS survival assay, NB4 (AML-M3) cells | IC50 (ng/ml), PESMTS survival assay, Namalwa (ALL-L3) cells | IC50 (ng/ml), PESMTS survival assay, RPMI-8226 cells (multiple myeloma) | IC50 (ng/ml), PESMTS survival assay, Raji (ALL-L3) cells | IC50 (ng/ml), PESMTS survival assay, SC-I cells (follicular lymphoma) | IC50 (ng/ml), PESMTS survival assay, U266 cells (multiple myeloma) | IC50 (ng/ml), PESMTS survival assay, OPM2 cells (multiple myeloma) |
| --- | --- | --- | --- | --- | --- | --- | --- | --- | --- | --- | --- | --- |
| CH11 (antibody) | > 10000 ng/mL | > 10000 ng/mL | > 10000 ng/mL | 6.58 ng/mL | > 10000 ng/mL | > 10000 ng/mL | > 10000 ng/mL | > 10000 ng/mL | 15.8 ng/mL | > 10000 ng/mL | > 10000 ng/mL | – |
| MegaFasL (fusion polypeptide m or hACRP30:hFasL) (from UniProt P48023 103-281) (ligand) | 10.4 ng/mL | 1.17 ng/mL | 213 ng/mL | 0.06 ng/mL | > 10000 ng/mL | 16 ng/mL | 57 ng/mL | 3.57 ng/mL | 5.6 ng/mL | > 10000 ng/mL | 6.2 ng/mL | 2.19 ng/mL |
